Data: the DeepSol protein solubility set

Test: soluble on expression in E. coli; label from the status in PepcDB or PDB records

| Sequence | soluble on expression in E. coli |
| --- | --- |
| MKATVSTIDNRGNLGKVLKDVTSKDSIKGYTVAAATAGVAQGLNYNPSAMGLDAKSLQTVAVKVTADALIKTAVYGGSFKDNLASAAAGTAASIGGAYGAGKIGDLGLTEGGLAKIALHAGLGGLLSEAMGGDFRTGAIAGGANELLVGVLGDKLEHHHHHH | not soluble |
| MKAVAINGYGTVGKRVADAIAQQDDMKVIGVSKTRPDFEARMALKKGYDLYVAIPERVKLFEKAGIEVAGTVDDMLDEADIVIDCTPEGIGAKNLKMYKEKGIKAIFQGGEKHEDIGLSFNSLSNYEESYGKDYTRVVSCNTTGLCRTLKPLHDSFGIKKVRAVIVRRGADPAQVSKGPINAIIPNPPKLPSHHGPDVKTVLDINIDTMAVIVPTTLMHQHNVMVEVEETPTVDDIIDVFEDTPRVILISAEDGLTSTAEIMEYAKELGRSRNDLFEIPVWRESITVVDNEIYYMQAVHQESDIVPENVDAVRAILEMEEDKYKSINKTNKAMNILQ | soluble |
| MKAVKATLMYDGLGNIEKNVYIIFDKDIVNITREKPKDVEVVAEGVVTPAFIDAHSHIGMDRYGEPYQESELNEQMDSVLPLADALYSIYMDDKAFKHSIEFGVLYSSILPGSGNIIGGKGVLIRNYGRDIEDAFIKYVGVKAAFGYNPRSTTNWKGLRPSTRMGAIGILFNWLIKTKKTISLLEKGKKDPEEIDPVIEALIPVLKGEMPLRVHAHKEDDIAVLLMIKRKFNLKVTVEHAADVHSKETFEKIKREGVPLVYGPLDAHPYKVELKHEDWKNAKYLLEVKPFFGLMSDHPFSIQANLYLQLRHFIRLGMSKAEAIKLITYNNAKILGIEDKLGSLEKGKWASLVVWNGDPFNLENYPTHVFAEGELIHEANL | soluble |
| MKCLVTGGNVKVLGKAVHSLSRIGDELYLEPLEDGLSLRTVNSSRSAYACFLFAPLFFQQYQAATPGQDLLRCKILMKSFLSVFRSLAMLEKTVEKCCISLNGRSSRLVVQLHCKFGVRKTHNLSFQDCESLQAVFDPASCPHMLRAPARVLGEAVLPFSPALAEVTLGIGRGRRVILRSYHEEEADSTAKAMVTEMCLGEEDFQQLQAQEGVAITFCLKEFRGLLSFAESANLNLSIHFDAPGRPAIFTIKDSLLDGHFVLATLS | soluble |
| MKCQKDDPICHLRDDMQDGDNSVNRTVSHLFQLTLTILTRVYSNLNEISLVCQSWNLHAESSGIYKIPQKVQISLLKTFETNREAKSKNLLDPVLLDQFANQSIRAHSLLLLPYSTTRYKTWTGKTFSKHNLIDEFVGKSFECATESFCPDPCCSGIPSVVRSSSKYAPLCKMNSCQKASTCIVKHFENDDLSKLRLNQFNVNCGCEEPGTIYRPDIGRCVHHNPCTKQSLCRDFGQECVNTASGYKCVCQLGYFRNGSNSCAPLKFSAPVYHGFALSEEMDEL | not soluble |
| MKCRKCGEPSVYHQKHSGNKYCRTCFIKETKRKVRKTLGRDVLKNNIKVAMGLSGGKDSLVMAYLLNEFYKEIPNSKIIAIMVNEGIEGYRLDGIEAAVKFCEKHDIEYKIVQFKDYLGTNLDEIVKLAKEKNLTMNPCSFCGVIRRKILNRVSIEEKCDFLAIGHNLDDIAQAVMMNYIEGDVKKLAFLGKSLKHPKFVKRIKPLEKIPEDEVLLLADMLELTYHKSPCPYSCLSFRSEVSEITDTLEKNHPGTKYSIVRGYERLLEHIELPGYTGECKICGDLSATEVCKVCSYLKNLGILEKSKFEKI | not soluble |
| MKDHSGISFGKNPTVLAIENYIRENGLTPGDVLPSEAAICEHLSVSRSSVREAMRTLASLDVVEIRHGHGTYVGKMSMAPLVNGMVLRLTLNEKSAIENLQHVVGMRIALDRSNAQELAAYYKGRETPKLDQIVEEMKIQFERGESFEHQDFLFHQLLNDHLSNPLMQEFSMALWEIHTRVVPRLGLRDPEDISNTVQAHAHMVEALRAGDVDKLLETIDEHYQPLLSILEKNRQYVEQTEHAVESQKGTLHL | not soluble |
| MKDILIIAGPTAVGKTDISIKIAQKMNGEIISADSMQIYKYMDIGSAKVTKEEMKGIKHHLIDVVDPSEEFSVASFKKMAQNAIDDITSRKKYPIIVGGTGLYINSLICNYDFTGAYKDEAYRESLQAIAKDKGKEYLHEKLKNIDIDSYKKLYPNDLKRVIRALEVYKITGKTISELNSNVDLYDIPYNIHYFILNMDRQKLYERINLRVDIMLRNGLVDEVIKLRDMGYNSNMQSMKGIGYKEILSYLEGCITLEEAVELIKKGSRHYAKRQLTWFRKDERAVWINKDIYKNDDDIVFKILSSIEEILEHHHHHH | not soluble |
| MKDKQLRLRIYRSAFSSMKNAIVEKAREFGVPVILVDPSYTSSICPVHGSKIIYQPDGGSAPRVGVCGKGGERWHRDVVALYNLRKRAGDVLEHHHHHH | not soluble |
| MKDLIIIGAGQAGLTMGYYLKQEGYNFLLLEAGNRVGDSWRNRYDSLQLFTPRSYSSLPGMALIGEKNEFPYKDEIATYLEEYARHFQLPVQLQTEVLKIRKEKGIFELHTSTEILQTKKVIIATGGFQQPFIPSVSANLSSHVFQIHSSQYKSPSQIPQGKVLVVGGGNSGMQIAVEFAKTHEVTMSISHPLTFLPLHFFRKSIFNWLEKLGLLYAEVSTKRGKWFQKRKDPLEHHHHHH | soluble |
| MKDSSRAELMRKVQETSFACVDMNLYLDNHPDDKNAINTYNSLCNQFAQARYAYENKYGPLTNFGYAPSRCPWQWADQPWPWDREFNYLEHHHHHH | soluble |
| MKDTVKSLKQELQTITHWEHSQKDLWFWEKLGRLPFQVLDKLTPKVVHRKLGQLLDELGSYIQSGGQYLVNEGKVLDKLGVSSLAEVPHLPLETMDRVCDELIDARVTFAQLQGAATGIGGALTLAVDIPALLGLALKTLQEIAIVYGYDPKEKEERVFVVKCLQFAAADIVGKKAILDELSSFSNERGRVFSELQGWREVMMTFRDQYGWKKLFQAVPIIGVIFGSLFNKSFMEDIAETGKMLYRKRRIIEKLKQFEPGI | not soluble |
| MKDYIRSVLDVVAESPFVPLETHARKGVLAVEKLSEAMEAYCTGNQALLDERTEEIDVLEHEADKIKQKIRASIPSSVRLPVNKKDLLSFLKQQDSIADFAQASAYWMTLRPCKDLPDEIKEGFLELMATSLKTARMYDRLVGELYKLLATSFSKEEIKETLQLVPEVEKLEHDVDVLETALLKKIFEHESAIGGAGVCHLMGLVERIGGIADKSASAADRLRSMILRRLEHHHHHH | soluble |
| MKEIDIIQQIKLGEVSKVQFKERLLDNYDIGCELVAFSNARGGTLVVGAVDKTGNINPLSYLEVQETTNTLSNIASENVVPAILVDVETISVDGGSLVVAHIKEGLNKPYHDNRGIVWVKNGADKRKVFDNAELAEMMTDCGSFSPDEAGVRDATIKDLDEGTIKTFLSNKFDKVLARKGLVGDAFREASLDTVCSAIASGHNGEKLLRNLRFIRPDGKITVAAMLLFGKYTQRWLPMMTAKCICFVGNNLGGTQFRDKVNDADIEGNLLHQFETIMDFFTRNLRHIQVGNEFNSQGVLEIPYTSLVEFTVNALVHRSLNATAPIRIFIFDDRVEIHSPGILPNGLTVDDIVIGTSMPRNMFLFTNAIHLLPYTGAGSGMLRALSEDVNVSFTNNDRTNEFVITINRQISNQPNADSDTDLDTDSDTFNADSDTKLRYSDTDLDTDSDTFNADSDTIRPKITNKQRDIVNFCSVPRSSKEILERVGVTYHSKNIQTYIMSLIEAGYLEMTNPEHPNASNQKYRRSKKLEHHHHHH | soluble |
| MKEIKLILTDIDGVWTDGGMFYDQTGNEWKKFNTSDSAGIFWAHNKGIPVGILTGEKTEIVRRRAEKLKVDYLFQGVVDKLSAAEELCNELGINLEQVAYIGDDLNDAKLLKRVGIAGVPASAPFYIRRLSTIFLEKRGGEGVFREFVEKVLGINLEDFIAVIQ | soluble |
| MKEIKVIIAGPRGRMGHEAVLLMERTEHFNLVAAVDYKHGGEKISDLPGMPALHAPIYADLHTCLDEVEADVLLDLTTPEVGKQHVTLAVERGLRSVIGTTGFTEEELTRLTENAKEKAVGTIIAPNFAIGAVLMMKFSQMAAKYFQDVEVIELHHDQKLDAPSGTAVKTVELIRQNRESKQQGHPNEVEQLAGARGANVDGIHIHSVRLPGLIAHQEVMFGGDGQMLTVRHDSFNRASFMSGVKLSIETVMNLDHLVYGLENIID | not soluble |
| MKEKDLIRFMDRMIEERKAEYALGTAHIYQASRNALSAFLKAHDIPFKRVRPELLKQFERFLRRRGNSWNTVSTYMRVLRAVYNRAVDRRLAPHVPHLFKAVYTGTQADIKRALKAEEMGQLLDTKCTRKQSELLQKTHHLFVLMFLLRGLPFVDLAYIQKKDLNGNILTYHRRKTGRQITITVTKDAMNIIREYMDTTTESPYLFPILSAEGGEDTIYREYQQALRIFNYQLTKLGELLGLTTELTSYTARHTWATLAYYLEVHPGIIREAMGHSSIKVTETYLKPFNIKKLDETNLSIIGYAKRSFEG | not soluble |
| MKEKIPFYNEKEFHDMVKKTKKGTFSGWYIIDKDNNSVEFSGKFNRQFKLNKPVIPVNTEYVTRKEFNEYKNSNDQRLTKIETTLAAQGEQINKLTQTVEKQGEQINQLVQVVLLHGEQINKLTQTVEKQGEQIKELQIEQKAQGETLKLILQTLQKMSDRLDKMEVKMDKMEVKMDKMEVKMDKMEKRIDKLESKLEHHHHHH | not soluble |
| MKEKISEKEYKALIRKIGKEHFDGEKEEYGDGTVGVWTYELRKYKLKPPVKVKYVTQEQFQEYKDSNNQRLIKIETTLAAQGEQIRIQVEQIKELQIEQKAQGETLKLILQTLQKMSDRLDKMEVKMDKMEEKMDKMEGKIDKIENRMDKMEVKMDKMEKRIDKLESKLEHHHHHH | not soluble |
| MKELRRFHLDHDFKIRDWVVVLNEIVVSRWDEVRREKVYRIGFQEFDCSDGWDIEREDGTIATVVFVKSSFDFFVWSK | not soluble |
| MKEPVKPTVKLAEIPPREPRFTPEQERIYARLSVHDPFNMLSEQHKANLIQLMTHGLGYRPIQLS | not soluble |
| MKETNGIPARLRQVAVIRDGPRQETVVLEADGMYYIKGETVYLQFAEENELGRVNNIVKIAPDEVTVLRSGAVEMRQTSRRRQETSGHYGTVFGRWALAAKTSSMEFHYDERRKKGRLFLSYELMLGDERSGRHTLTLTFKGV | not soluble |
| MKETVTMLNQQYVVPEGLQPYQGVTANSPWLASETEKRRRKICDSLEEAIRRSGLKNGMTISFHHAFRGGDKVVNMVMAKLAEMGFRDLTLASSSLIDAHWPLIEHIKNGVVRQIYTSGLRGKLGEEISAGLMENPVQIHSHGGRVKLIQSGELNIDVAFLGVPCCDEFGNANGFSGKSRCGSLGYAQVDAQYAKCVVLLTEEWVEFPNYPASIAQDQVDLIVQVDEVGDPEKITAGAIRLSSNPRELLIARQAANVIEHSGYFCDGFSLQTGTGGASLAVTRFLEDKMRRHNITASFGLGGITGTMVDLHEKGLIKALLDTQSFDGDAARSLAQNPHHIEISTNQYANPASKGAACERLNVVMLSALEIDVNFNVNVMTGSNGVLRGASGGHSDTAAGADLTIITAPLVRGRIPCVVEKVLTTVTPGASVDVLVTDHGIAVNPARQDLLDNLRAAGVALMTIEQLQQRAEQLTGKPQPIEFTDRVVAVVRYRDGSVIDVIRQVKG | soluble |
| MKFGNFLLTYQPPELSQTEVMKRLVNLGKASEGCGFDTVWLLEHHFTEFGLLGNPYVAAAHLLGATETLNVGTAAIVLPTAHPVRQAEDVNLLDQMSKGRFRFGICRGLYDKDFRVFGTDMDNSRALMDCWYDLMKEGFNEGYIAADNEHIKFPKIQLNPSAYTQGGAPVYVVAESASTTEWAAERGLPMILSWIINTHEKKAQLDLYNEVATEHGYDVTKIDHCLSYITSVDHDSNRAKDICRNFLGHWYDSYVNATKIFDDSDQTKGYDFNKGQWRDFVLKGHKDTNRRIDYSYEINPVGTPEECIAIIQQDIDATGIDNICCGFEANGSEEEIIASMKLFQSDVMPYLKEKQ | soluble |
